Data reported in publication PMC4528106.
Read-outs that look alike come from different tables or passages of the source.

Assays:
[1] = target: HKU4-CoV 3CLpro (bat coronavirus HKU4)
[2] = target: SARS-CoV 3CLpro with authentic N and C termini (SARS-CoV)
[3] = target: MERS-CoV 3CLpro (nsp5 protease), without any N- or C-terminal extensions (MERS-CoV); experiment: AUC
[4] = target: MERS-CoV 3CLpro (nsp5 protease), without any N- or C-terminal extensions (MERS-CoV)

HKU4-CoV 3CLpro (enzyme)
Kd [1]: 100 nM

SARS-CoV 3CLpro with authentic N and C termini (enzyme)
Kd [2]: 60 nM

MERS-CoV 3CLpro (nsp5 protease), without any N- or C-terminal extensions (enzyme)
Kd [3]: 52 µM | koff [3]: 0.0001 s⁻¹ | stoichiometry N [3]: 2 | Kd [4]: 7.8 µM
